According to PMC11635053, “Development of a homotrimeric PSMA radioligand based on the NOTI chelating platform” (EJNMMI Radiopharmacy and Chemistry, 2024):

Experiment: in vivo
Set-up: species or system mice
Details: male, NOD/SCID, mouse, iv, total radioactivity
Description: The capability of [^68Ga]Ga-9 to delineate PSMA-expressing tumors in vivo was evaluated by small-animal PET imaging at 1 and 2 h p.i. For this, mice bearing LNCaP xenografts (n = 3) were injected with 1–3 MBq (250–500 pmol) [^68Ga]Ga-9 into a tail vein and subjected to micro-PET/CT imaging at 1 h post-injection (p.i.). PSMA specificity was confirmed by co-injection of 2-PMPA (1 µmol mouse^−1). […] LNCaP tumors were clearly visualized by [^68Ga]Ga-9 and only the kidneys and the bladder as the major excretory organs were visible. […] The kidney uptake was 67.86 ± 8.35% IA g^−1 (n = 3) in the normal group vs. 19.9 ± 4.43% IA g^−1 in the blocking group (n = 3). […] The blood uptake was relatively high at 1 h p.i. with 3.62 ± 0.42% IA g^−1. Uptake in the muscles was low with 0.32 ± 0.12% IA g^−1. […]
For PET imaging studies, mice were injected with 100 µL sterile saline formulations of 250–500 pmol [^68Ga]Ga-9 (1–3 MBq) by intravenous tail-vein injection and anesthetized with isoflurane (2–4% in air). […] Image counts per second per voxel (cps voxel^−1) were calibrated to activity concentrations (Bq mL^−1) by measuring a 3.5 cm cylinder phantom filled with a known concentration of radioactivity. […]
Competitive inhibition (blocking) studies were also performed in vivo and measured using static PET imaging to investigate the specificity of the radiotracers for PSMA. […]

O=C(O)CC[C@H](NC(=O)N[C@@H](CCCCNC(=O)[C@H](Cc1ccc2ccccc2c1)NC(=O)[C@H]1CC[C@H](CNC(=O)CCCCn2ccnc2CN2CCN(Cc3nccn3CCCCC(=O)NC[C@H]3CC[C@H](C(=O)N[C@@H](Cc4ccc5ccccc5c4)C(=O)NCCCC[C@H](NC(=O)N[C@@H](CCC(=O)O)C(=O)O)C(=O)O)CC3)CCN(Cc3nccn3CCCCC(=O)NC[C@H]3CC[C@H](C(=O)N[C@@H](Cc4ccc5ccccc5c4)C(=O)NCCCC[C@H](NC(=O)N[C@@H](CCC(=O)O)C(=O)O)C(=O)O)CC3)CC2)CC1)C(=O)O)C(=O)O [^nat/68Ga-9, metal not drawn] showed a tissue to tissue ratio at 1 h (Tumor-to-kidney ratio) of 0.24 and a tissue to tissue ratio at 1 h (Tumor-to-liver ratio) of 5.17.
